{
  "source": "paper PMC5423124",
  "biological_target": "Schistosoma japonicum glutathione-S-transferase with mPyTK at position 52 (GST-E52mPyTK) (Schistosoma japonicum) [GST: P08515]",
  "assay": "cross-linking",
  "data": [
    {"substance": "Schistosoma japonicum glutathione-S-transferase with mPyTK at position 52 (GST-E52mPyTK) (from UniProt P08515 2-218) (enzyme)", "values": [
      {"measurement": "photo-cross-linking yield of the covalent dimer", "value": 53, "unit": "%"}
    ]}
  ]
}
